“And” between values parts separate entries of the source, which are not always exact repeats. Equal entries are not always repeated. Where two headings read alike, the source gives them in different places.
B1: UBQLN2 UBA domain (UBQLN2 571-624) (domain or fragment, human, UniProt Q9UHD9 571-624, looked up)
chain: NAPQLPNPEVRFQQQLEQLNAMGFLNREANLQALIATGGDINAAIERLLGSQPS
B2: UBQLN2 UBL domain (UBQLN2 1-107) (domain or fragment, human, UniProt Q9UHD9 1-107, looked up)
chain: MAENGESSGPPRPSRGPAAAQGSAAAPAEPKIIKVTVKTPKEKEEFAVPENSSVQQFKEAISKRFKSQTDQLVLIFAGKILKDQDTLIQHGIHDGLTVHLVIKSQNR
B4: UBQLN2 109-576 (domain or fragment, human, UniProt Q9UHD9 109-576, looked up)
chain: QGQSTQPSNAAGTNTTSASTPRSNSTPISTNSNPFGLGSLGGLAGLSSLGLSSTNFSELQSQMQQQLMASPEMMIQIMENPFVQSMLSNPDLMRQLIMANPQMQQLIQRNPEISHLLNNPDIMRQTLEIARNPAMMQEMMRNQDLALSNLESIPGGYNALRRMYTDIQEPMLNAAQEQFGGNPFASVGSSSSSGEGTQPSRTENRDPLPNPWAPPPATQSSATTSTTTSTGSGSGNSSSNATGNTVAAANYVASIFSTPGMQSLLQQITENPQLIQNMLSAPYMRSMMQSLSQNPDLAAQMMLNSPLFTANPQLQEQMRPQLPAFLQQMQNPDTLSAMSNPRAMQALMQIQQGLQTLATEAPGLIPSFTPGVGVGVLGTAIGPVGPVTPIGPIGPIVPFTPIGPIGPIGPTGPAAPPGSTGSGGPTGPTVSSAAPSETTSPTSESGPNQQFIQQMVQALAGANAPQLP
B5: UBQLN2 248-576 (domain or fragment, human, UniProt Q9UHD9 248-576, looked up)
chain: MRNQDLALSNLESIPGGYNALRRMYTDIQEPMLNAAQEQFGGNPFASVGSSSSSGEGTQPSRTENRDPLPNPWAPPPATQSSATTSTTTSTGSGSGNSSSNATGNTVAAANYVASIFSTPGMQSLLQQITENPQLIQNMLSAPYMRSMMQSLSQNPDLAAQMMLNSPLFTANPQLQEQMRPQLPAFLQQMQNPDTLSAMSNPRAMQALMQIQQGLQTLATEAPGLIPSFTPGVGVGVLGTAIGPVGPVTPIGPIGPIVPFTPIGPIGPIGPTGPAAPPGSTGSGGPTGPTVSSAAPSETTSPTSESGPNQQFIQQMVQALAGANAPQLP

Tests used:
Test in all cases: NMR titration
[1] = target: B2
UBQLN2 109-576 [2] = target: B4
UBQLN2 178-576 = UBQLN2 178-576 (human, UniProt Q9UHD9 178-576)
UBQLN2 248-576 = target: B5
UBQLN2 379-576 = UBQLN2 379-576 (human, UniProt Q9UHD9 379-576)
UBQLN2 109-576 [3] = target: B4; remark: listed apart in the source
[4] = target: B1
[5] = target: B2; remark: listed apart in the source

## B1
[1]
  Kd: 178 µM and 210 µM

## B2
UBQLN2 109-576 [2]
  binding result: binds
UBQLN2 178-576
  binding result: binds
UBQLN2 248-576
  binding result: binds
UBQLN2 379-576
  binding result: binds

B3: UBQLN2 UBL I80A (domain or fragment, human, UniProt Q9UHD9 1-107, looked up)
chain: MAENGESSGPPRPSRGPAAAQGSAAAPAEPKIIKVTVKTPKEKEEFAVPENSSVQQFKEAISKRFKSQTDQLVLIFAGKALKDQDTLIQHGIHDGLTVHLVIKSQNR
UBQLN2 109-576 [3]
  binding result: binds

## B4
[4]
  UBA peak intensity relative to isolated UBA: 60%

## B5
[5]
  UBL peak intensity relative to isolated UBL: 70%

Reference: article doi:10.1101/2021.02.22.432116 (bioRxiv, 2021)
